Experimental data taken from article PMC9482650, “Quantitative fragmentomics allow affinity mapping of interactomes” (Nature Communications, 2022).

Columns and labels:
Test in all cases: holdup assay
Parameters in all cases: key: below the threshold = too weak to quantify, mostly under pKd 3.1 to 4
Conditions in all cases: plain residues with an end cap or a label only (N-terminal biotin on a linker: ado-ado)
AHNAK1, Q09666 = target: AHNAK1, Q09666
ARHGEF12, Q9NZN5-2 = target: ARHGEF12, Q9NZN5-2
CARD11, Q9BXL7 = target: T1, CARD11, Q9BXL7
T1 sequence (Q9BXL7 662-765, limits assumed, looked up): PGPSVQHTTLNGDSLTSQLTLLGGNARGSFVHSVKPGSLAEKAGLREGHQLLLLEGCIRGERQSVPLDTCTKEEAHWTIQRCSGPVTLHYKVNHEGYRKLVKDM

DLG2_3, Q15700 = target: DLG2_3, Q15700
HTRA3, P83110 = target: T2, HTRA3, P83110
T2 sequence (P83110 354-453, limits assumed, looked up): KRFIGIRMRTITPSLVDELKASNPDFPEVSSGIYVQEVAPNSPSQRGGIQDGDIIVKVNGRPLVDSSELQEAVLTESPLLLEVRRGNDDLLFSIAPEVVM

HTRA4, P83105 = target: T3, HTRA4, P83105
T3 sequence (P83105 378-476, limits assumed, looked up): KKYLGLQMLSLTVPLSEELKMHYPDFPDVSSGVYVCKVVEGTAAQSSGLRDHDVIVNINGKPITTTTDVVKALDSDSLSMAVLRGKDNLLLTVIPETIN

IL16_1, Q14005 = target: IL16_1, Q14005
Inadl_3, Q8NI35 = target: Inadl_3, Q8NI35
Inadl_4, Q8NI35 = target: Inadl_4, Q8NI35
Inadl_9, Q8NI35 = target: Inadl_9, Q8NI35
LNX2_3, Q8N448 = target: T4, LNX2_3, Q8N448
T4 sequence (Q8N448 463-564, limits assumed, looked up): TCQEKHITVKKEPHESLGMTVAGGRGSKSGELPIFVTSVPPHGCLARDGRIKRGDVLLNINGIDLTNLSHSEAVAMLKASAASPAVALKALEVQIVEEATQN

MAGI2_5, Q86UL8 = target: MAGI2_5, Q86UL8
MAST1, Q9Y2H9 = target: MAST1, Q9Y2H9
MPP7, Q5T2T1 = target: T5, MPP7, Q5T2T1
T5 sequence (Q5T2T1 134-230, limits assumed, looked up): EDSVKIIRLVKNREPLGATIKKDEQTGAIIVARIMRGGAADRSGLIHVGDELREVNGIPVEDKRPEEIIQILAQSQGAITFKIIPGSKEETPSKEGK

NHERF2_2, Q15599 = target: NHERF2_2, Q15599
NHERF4_1, Q86UT5-2 = target: NHERF4_1, Q86UT5-2
NOS1, P29475 = target: NOS1, P29475
PARD3B_1, Q8TEW8 = target: T6, PARD3B_1, Q8TEW8
T6 sequence (Q8TEW8 196-299, limits assumed, looked up): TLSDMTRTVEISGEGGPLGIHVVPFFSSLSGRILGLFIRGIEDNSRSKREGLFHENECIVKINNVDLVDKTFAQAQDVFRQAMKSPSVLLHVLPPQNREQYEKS

PARD3_3, Q8TEW0 = target: PARD3_3, Q8TEW0
PCLO, Q9Y6V0 = target: T7, PCLO, Q9Y6V0
T7 sequence (Q9Y6V0 4491-4600, limits assumed, looked up): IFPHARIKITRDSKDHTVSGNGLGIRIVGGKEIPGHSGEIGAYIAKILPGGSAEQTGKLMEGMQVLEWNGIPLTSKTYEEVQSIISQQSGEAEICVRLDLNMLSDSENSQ

SCRIB_2, Q14160 = target: SCRIB_2, Q14160
SNTA1, Q13424 = target: T8, SNTA1, Q13424
T8 sequence (Q13424 82-180, limits assumed, looked up): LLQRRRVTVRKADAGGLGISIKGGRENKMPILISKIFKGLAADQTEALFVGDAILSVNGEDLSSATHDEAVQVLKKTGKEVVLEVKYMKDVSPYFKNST

SNTG1, Q9NSN8 = target: T9, SNTG1, Q9NSN8
T9 sequence (Q9NSN8 52-150, limits assumed, looked up): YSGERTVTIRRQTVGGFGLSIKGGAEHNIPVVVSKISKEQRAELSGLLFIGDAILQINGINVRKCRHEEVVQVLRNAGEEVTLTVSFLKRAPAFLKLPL

SNTG2, Q9NY99 = target: T10, SNTG2, Q9NY99
T10 sequence (Q9NY99 68-166, limits assumed, looked up): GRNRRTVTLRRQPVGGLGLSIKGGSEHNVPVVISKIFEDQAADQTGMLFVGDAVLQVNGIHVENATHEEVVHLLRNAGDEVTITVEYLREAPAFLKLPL

SYNJ2BP, P57105 = target: T11, SYNJ2BP, P57105
T11 sequence (P57105 8-110, limits assumed, looked up): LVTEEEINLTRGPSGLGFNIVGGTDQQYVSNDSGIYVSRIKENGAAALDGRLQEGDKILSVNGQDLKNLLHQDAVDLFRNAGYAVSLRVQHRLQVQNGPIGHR

TJP1_2, Q07157 = target: TJP1_2, Q07157
TJP1_2, Q07157, sequence (Q07157 181-274): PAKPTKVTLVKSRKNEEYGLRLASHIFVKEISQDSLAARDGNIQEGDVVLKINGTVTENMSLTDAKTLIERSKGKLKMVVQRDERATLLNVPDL

NHERF2_2, Q15599, sequence (Q15599 142-238): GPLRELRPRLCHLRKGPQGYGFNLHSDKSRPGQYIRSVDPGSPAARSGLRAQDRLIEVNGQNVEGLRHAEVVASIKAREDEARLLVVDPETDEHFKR
ARHGEF12, Q9NZN5-2, sequence (Q9NZN5 other isoform, or with tags, fused parts or gaps): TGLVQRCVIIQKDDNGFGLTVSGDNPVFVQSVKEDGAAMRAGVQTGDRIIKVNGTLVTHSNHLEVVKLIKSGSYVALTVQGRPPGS
MAST1, Q9Y2H9, sequence (Q9Y2H9 962-1065): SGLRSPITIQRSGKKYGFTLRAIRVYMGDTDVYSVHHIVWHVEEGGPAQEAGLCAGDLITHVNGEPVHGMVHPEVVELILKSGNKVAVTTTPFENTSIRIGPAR
Inadl_3, Q8NI35, sequence (Q8NI35 359-469): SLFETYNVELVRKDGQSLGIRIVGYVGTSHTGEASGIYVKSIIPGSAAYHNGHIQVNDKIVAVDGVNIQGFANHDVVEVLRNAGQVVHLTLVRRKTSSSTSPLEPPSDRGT
SCRIB_2, Q14160, sequence (Q14160 857-960): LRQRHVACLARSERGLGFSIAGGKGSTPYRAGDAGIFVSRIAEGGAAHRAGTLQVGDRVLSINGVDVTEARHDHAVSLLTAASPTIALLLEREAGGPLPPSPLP
IL16_1, Q14005, sequence (Q14005 210-306): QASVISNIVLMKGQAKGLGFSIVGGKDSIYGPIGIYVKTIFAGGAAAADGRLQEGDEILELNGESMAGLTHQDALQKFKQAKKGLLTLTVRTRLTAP
Inadl_4, Q8NI35, sequence (Q8NI35 547-651): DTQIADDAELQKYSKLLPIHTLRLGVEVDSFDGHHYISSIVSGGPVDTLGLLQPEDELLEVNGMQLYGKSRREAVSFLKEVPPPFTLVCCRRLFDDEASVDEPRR
PARD3_3, Q8TEW0, sequence (Q8TEW0 582-685): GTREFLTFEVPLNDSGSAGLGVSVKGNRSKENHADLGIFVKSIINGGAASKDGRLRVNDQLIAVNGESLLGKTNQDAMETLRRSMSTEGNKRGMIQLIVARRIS
AHNAK1, Q09666, sequence (Q09666 4-100): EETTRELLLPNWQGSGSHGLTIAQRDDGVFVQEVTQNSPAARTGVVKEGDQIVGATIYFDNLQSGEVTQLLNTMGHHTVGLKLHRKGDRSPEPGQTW
NOS1, P29475, sequence (P29475 9-101): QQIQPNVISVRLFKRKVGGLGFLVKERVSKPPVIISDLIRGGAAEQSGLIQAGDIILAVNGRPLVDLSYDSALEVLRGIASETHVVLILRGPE
Inadl_9, Q8NI35, sequence (Q8NI35 1530-1615): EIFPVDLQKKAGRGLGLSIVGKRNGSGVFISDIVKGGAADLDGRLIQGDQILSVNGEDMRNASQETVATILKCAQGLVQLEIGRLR
NHERF4_1, Q86UT5-2, sequence (Q86UT5 other isoform, or with tags, fused parts or gaps): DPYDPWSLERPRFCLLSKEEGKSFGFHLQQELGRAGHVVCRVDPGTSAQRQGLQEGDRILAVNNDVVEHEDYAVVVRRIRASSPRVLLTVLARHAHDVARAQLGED
MAGI2_5, Q86UL8, sequence (Q86UL8 915-1017): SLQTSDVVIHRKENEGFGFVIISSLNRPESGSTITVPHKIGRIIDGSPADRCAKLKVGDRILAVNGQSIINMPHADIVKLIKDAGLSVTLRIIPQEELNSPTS

GTMFLRETSL [GUCY1A2, P33402]
pKd (AHNAK1, Q09666): below the threshold
pKd (ARHGEF12, Q9NZN5-2): 4.93
pKd (CARD11, Q9BXL7): below the threshold
pKd (DLG2_3, Q15700): 4.79
pKd (HTRA3, P83110): below the threshold
pKd (HTRA4, P83105): 3.85
pKd (IL16_1, Q14005): 4.47
pKd (Inadl_3, Q8NI35): below the threshold
pKd (Inadl_4, Q8NI35): below the threshold
pKd (Inadl_9, Q8NI35): below the threshold
pKd (LNX2_3, Q8N448): below the threshold
pKd (MAGI2_5, Q86UL8): 3.98
pKd (MAST1, Q9Y2H9): 5.08
pKd (MPP7, Q5T2T1): below the threshold
pKd (NHERF2_2, Q15599): 4.56
pKd (NHERF4_1, Q86UT5-2): 4.54
pKd (NOS1, P29475): 3.84
pKd (PARD3B_1, Q8TEW8): 3.88
pKd (PARD3_3, Q8TEW0): below the threshold
pKd (PCLO, Q9Y6V0): below the threshold
pKd (SCRIB_2, Q14160): 5.15
pKd (SNTA1, Q13424): 5.64
pKd (SNTG1, Q9NSN8): 5.09
pKd (SNTG2, Q9NY99): 5.27
pKd (SYNJ2BP, P57105): 5.41
pKd (TJP1_2, Q07157): below the threshold

PLATCDETSI [SEMA4F, O95754]
pKd (AHNAK1, Q09666): below the threshold
pKd (ARHGEF12, Q9NZN5-2): 3.81
pKd (CARD11, Q9BXL7): below the threshold
pKd (DLG2_3, Q15700): 3.9
pKd (HTRA3, P83110): below the threshold
pKd (HTRA4, P83105): below the threshold
pKd (IL16_1, Q14005): below the threshold
pKd (Inadl_3, Q8NI35): below the threshold
pKd (Inadl_4, Q8NI35): below the threshold
pKd (Inadl_9, Q8NI35): below the threshold
pKd (LNX2_3, Q8N448): below the threshold
pKd (MAGI2_5, Q86UL8): below the threshold
pKd (MAST1, Q9Y2H9): 4.64
pKd (MPP7, Q5T2T1): 3.54
pKd (NHERF2_2, Q15599): 4.31
pKd (NHERF4_1, Q86UT5-2): below the threshold
pKd (NOS1, P29475): below the threshold
pKd (PARD3B_1, Q8TEW8): below the threshold
pKd (PARD3_3, Q8TEW0): 3.9
pKd (PCLO, Q9Y6V0): below the threshold
pKd (SCRIB_2, Q14160): 4.39
pKd (SNTA1, Q13424): 4.01
pKd (SNTG1, Q9NSN8): 4.53
pKd (SNTG2, Q9NY99): 4.55
pKd (SYNJ2BP, P57105): 4.62
pKd (TJP1_2, Q07157): below the threshold

IKLETKKTKL [SLC15A2, Q16348]
pKd (AHNAK1, Q09666): below the threshold
pKd (ARHGEF12, Q9NZN5-2): 4.69
pKd (CARD11, Q9BXL7): below the threshold
pKd (DLG2_3, Q15700): below the threshold
pKd (HTRA3, P83110): below the threshold
pKd (HTRA4, P83105): 3.99
pKd (IL16_1, Q14005): below the threshold
pKd (Inadl_3, Q8NI35): below the threshold
pKd (Inadl_4, Q8NI35): below the threshold
pKd (Inadl_9, Q8NI35): below the threshold
pKd (LNX2_3, Q8N448): below the threshold
pKd (MAGI2_5, Q86UL8): 3.6
pKd (MAST1, Q9Y2H9): 4.86
pKd (MPP7, Q5T2T1): below the threshold
pKd (NHERF2_2, Q15599): 4.32
pKd (NHERF4_1, Q86UT5-2): 4.27
pKd (NOS1, P29475): 3.61
pKd (PARD3B_1, Q8TEW8): 3.77
pKd (PARD3_3, Q8TEW0): below the threshold
pKd (PCLO, Q9Y6V0): below the threshold
pKd (SCRIB_2, Q14160): below the threshold
pKd (SNTA1, Q13424): 3.59
pKd (SNTG1, Q9NSN8): 3.64
pKd (SNTG2, Q9NY99): 3.62
pKd (SYNJ2BP, P57105): below the threshold
pKd (TJP1_2, Q07157): below the threshold

GQNMTVSVVI [PRLHR, P49683]
pKd (AHNAK1, Q09666): below the threshold
pKd (ARHGEF12, Q9NZN5-2): 4.13
pKd (CARD11, Q9BXL7): below the threshold
pKd (DLG2_3, Q15700): 3.74
pKd (HTRA3, P83110): 3.72
pKd (HTRA4, P83105): 4.15
pKd (IL16_1, Q14005): 3.81
pKd (Inadl_3, Q8NI35): 4.52
pKd (Inadl_4, Q8NI35): below the threshold
pKd (Inadl_9, Q8NI35): below the threshold
pKd (LNX2_3, Q8N448): 3.61
pKd (MAGI2_5, Q86UL8): below the threshold
pKd (MAST1, Q9Y2H9): 3.9
pKd (MPP7, Q5T2T1): below the threshold
pKd (NHERF2_2, Q15599): 3.69
pKd (NHERF4_1, Q86UT5-2): 3.64
pKd (NOS1, P29475): 3.82
pKd (PARD3B_1, Q8TEW8): 4.86
pKd (PARD3_3, Q8TEW0): 4.1
pKd (PCLO, Q9Y6V0): below the threshold
pKd (SCRIB_2, Q14160): below the threshold
pKd (SNTA1, Q13424): 3.89
pKd (SNTG1, Q9NSN8): below the threshold
pKd (SNTG2, Q9NY99): below the threshold
pKd (SYNJ2BP, P57105): 3.47
pKd (TJP1_2, Q07157): 3.69
